Results taken from publication PMC5605434 (Nature chemical biology, 2017).

Tests used:
[1] = target: TPNOX (triphosphopyridine nucleotide oxidase), quintuple mutant of Lactobacillus brevis H2O-forming NADH oxidase (LbNOX) (Lactobacillus brevis)
[2] = target: T1, LbNOX (Levilactobacillus brevis, UniProt Q03Q85); assay: X-ray crystal structure; assay type: binding; conditions: NADH-soaked crystal; His-tag not cleaved
T1 sequence (Q03Q85 1-450): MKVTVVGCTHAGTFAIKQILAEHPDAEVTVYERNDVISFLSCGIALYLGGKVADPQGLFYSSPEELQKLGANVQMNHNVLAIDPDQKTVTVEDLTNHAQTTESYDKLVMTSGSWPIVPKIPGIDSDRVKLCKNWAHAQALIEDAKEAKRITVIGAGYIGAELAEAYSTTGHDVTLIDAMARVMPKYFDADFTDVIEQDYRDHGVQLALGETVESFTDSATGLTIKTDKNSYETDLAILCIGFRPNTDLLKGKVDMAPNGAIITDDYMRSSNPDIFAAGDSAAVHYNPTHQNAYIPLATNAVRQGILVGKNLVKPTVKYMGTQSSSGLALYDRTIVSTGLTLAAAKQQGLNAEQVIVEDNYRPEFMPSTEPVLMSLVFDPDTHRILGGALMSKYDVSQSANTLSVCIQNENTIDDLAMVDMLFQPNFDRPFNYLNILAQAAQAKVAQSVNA

[3] = substrate: NC(=O)C1=CN([C@@H]2O[C@H](COP(=O)(O)OP(=O)(O)OC[C@H]3O[C@@H](n4cnc5c(N)ncnc54)[C@H](OP(=O)(O)O)[C@@H]3O)[C@@H](O)[C@H]2O)C=CC1; assay: purified protein; conditions: 50 mM NaPi, pH 7.5, 150 mM NaCl, 37 °C, O2 as co-substrate

## TPNOX (triphosphopyridine nucleotide oxidase), quintuple mutant of Lactobacillus brevis H2O-forming NADH oxidase (LbNOX) (enzyme)
[1]
  stoichiometry N: 4

## Cc1cc2nc3c(=O)[nH]c(=O)nc-3n(C[C@H](O)[C@H](O)[C@H](O)COP(=O)(O)OP(=O)(O)OC[C@H]3O[C@@H](n4cnc5c(N)ncnc54)[C@H](O)[C@@H]3O)c2cc1C [FAD]
[2]
  X-ray crystal structure: can the nicotinamide ring of NADH come into proximity of FAD

B1: LbNOX (Levilactobacillus brevis ATCC 367) (protein)
chain: T1 sequence (Q03Q85 1-450)
[3]
  Km: 621 ± 124 µM
  kcat: 0.052 ± 0.001 s⁻¹
  kcat/Km: 83 ± 16 M⁻¹ s⁻¹
